One assay addresses human factor Xa (human, UniProt P00742 41-179; P00742 235-488, limits assumed). The assay can be described thus: cell-based or functional assay.
Assay [1] has as its target T1, human neutrophil cathepsin G (human, UniProt P08311 21-244).
T1 sequence (looked up): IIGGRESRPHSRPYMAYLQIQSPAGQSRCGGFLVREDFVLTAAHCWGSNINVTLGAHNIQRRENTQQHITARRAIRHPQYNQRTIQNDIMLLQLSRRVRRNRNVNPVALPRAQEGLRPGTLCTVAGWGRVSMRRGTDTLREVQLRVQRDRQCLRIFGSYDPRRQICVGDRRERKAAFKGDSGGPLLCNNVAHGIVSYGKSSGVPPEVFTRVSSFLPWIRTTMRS
Briefly: cell-based or functional assay.

The target in another assay is human thrombin (human, UniProt P00734 328-622). The assay can be described thus: cell-based or functional assay.
Assay [2] has as its target T2, human neutrophil elastase (human, UniProt P08246 30-247, limits assumed).
T2 sequence (looked up): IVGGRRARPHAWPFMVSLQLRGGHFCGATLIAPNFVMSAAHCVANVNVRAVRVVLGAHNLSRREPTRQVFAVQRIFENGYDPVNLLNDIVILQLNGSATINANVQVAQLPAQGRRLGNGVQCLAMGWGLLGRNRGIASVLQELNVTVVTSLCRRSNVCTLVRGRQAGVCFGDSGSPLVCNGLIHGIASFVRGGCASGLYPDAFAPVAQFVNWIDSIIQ
The assay can be described thus: cell-based or functional assay.

Assay [3] concerns the target T3, thrombin (human, UniProt P00734 328-622). Briefly: cell-based or functional assay.
The target of assay [4] is T4, factor Xa (human, UniProt P00742 41-179; P00742 235-488, limits assumed). The assay can be described thus: cell-based or functional assay.
The target of assay [5] is T4, factor Xa. The assay can be described thus: heparin cofactor assay, HCA expt #2; ATIII titrated on 10 nM fXa + 50 ug/ml UFH, chromogenic readout. How it is done:
(§1) After 3 minutes, the reactions were quenched with polybrene and chromogenic substrate S2238 (thrombin) or S2765 (fXa), and the initial rate of chromophore production (405 nm) recorded to obtain a measurement residual, uninhibited thrombin or factor Xa. IC50s were determined from plots of ATIII concentration vs. percent residual target enzyme activity.

For assay [6], the target named is T3, thrombin. The assay can be described thus: heparin cofactor assay, HCA expt #2; ATIII titrated on 10 nM thrombin + 50 ug/ml UFH, chromogenic readout. The procedure: as §1

The term IC50 denotes the midpoint of a concentration-inhibition curve.

T4 sequence (P00742 41-179 limits assumed, form in doubt, chain 1 of 2): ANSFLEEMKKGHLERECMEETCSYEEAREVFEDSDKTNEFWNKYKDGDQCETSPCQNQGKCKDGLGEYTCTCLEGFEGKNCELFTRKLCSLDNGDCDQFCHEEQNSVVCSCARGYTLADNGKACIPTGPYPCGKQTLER
T4 sequence (P00742 235-488 limits assumed, form in doubt, chain 2 of 2): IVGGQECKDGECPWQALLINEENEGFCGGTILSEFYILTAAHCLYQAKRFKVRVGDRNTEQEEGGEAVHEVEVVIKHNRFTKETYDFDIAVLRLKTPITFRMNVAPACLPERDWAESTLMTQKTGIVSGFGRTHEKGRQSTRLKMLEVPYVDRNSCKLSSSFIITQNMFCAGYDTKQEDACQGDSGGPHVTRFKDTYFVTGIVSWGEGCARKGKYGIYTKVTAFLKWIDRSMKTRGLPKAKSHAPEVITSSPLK
Sequence of human factor Xa (P00742 41-179 limits assumed, chain 1 of 2): as the sequence (P00742 41-179 limits assumed, form in doubt, chain 1 of 2) above
Sequence of human factor Xa (P00742 235-488 limits assumed, chain 2 of 2): as the sequence (P00742 235-488 limits assumed, form in doubt, chain 2 of 2) above

B1: LEAQ.518 (other)
chain: SPVDICTAKPRDIPMNPMCIYRSPEKKATEDEGSEQKIPEATNRRVWELSKANSRFATTFYQHLADSKNDNDNIFLSPLSISTAFAMTKLGACNDTLQQLMEVFKFDTISEKTSDQIHFFFAKLNCRLYRKANKASKLVSANRLFGDKSLTFNETYQDISELVYGAKLQPLDFKENAEQSRAAINKWVSNKTEGRITDVIPSEAINELTVLVLVNTIYFKGLWKSKFSPENTRKELFYKADGESCSASMMYQEGKFRYRRVAEGTQVLELPFKGDDITMVLILPKPEKSLAKVEKELTPEVLQEWLDELEEMMLVVHMPRFRIEDGFSLKEQLQDMGLVDLFSPEKSKLPGIVAEGRDDLYVSDAFHKAFLEVNEEGSEAAASTTLEAQGRSLNPNRVTFKANRPFLVFIREVPLNTIIFMGRVANPCVK
Regarding B1, in the assay with human factor Xa, the “IC50 fXa/UFH (HCA #6)” value worked out at 27 nM and the “rsd Xa, no add (CA #52, stg 1 conc 200)” value was 3%. In assay [1], the “rsd IIa, catG (CA #52, stg 1 conc 200)” value is 2% and the “rsd Xa, catG (CA #52, stg 1 conc 200)” value came out at 1%. Further, in the assay with human thrombin, the “IC50 IIa/UFH (HCA #6)” value stood at 50 nM and the “rsd IIa, no add (CA #52, stg 1 conc 200)” value amounted to 4%. Further, in assay [2], the “rsd IIa, HNE (CA #52, stg 1 conc 200)” value is 3% and the “rsd Xa, HNE (CA #52, stg 1 conc 200)” value amounted to 2%.

B2: 13C.511 (other)
chain: SPVDICTAKPRDIPMNPMCIYRSPEKKATEDEGSEQKIPEATNRRVWELSKANSRFATTFYQHLADSKNDNDNIFLSPLSISTAFAMTKLGACNDTLQQLMEVFKFDTISEKTSDQIHFFFAKLNCRLYRKANKASKLVSANRLFGDKSLTFNETYQDISELVYGAKLQPLDFKENAEQSRAAINKWVSNKTEGRITDVIPSEAINELTVLVLVNTIYFKGLWKSKFSPENTRKELFYKADGESCSASMMYQEGKFRYRRVAEGTQVLELPFKGDDITMVLILPKPEKSLAKVEKELTPEVLQEWLDELEEMMLVVHMPRFRIEDGFSLKEQLQDMGLVDLFSPEKSKLPGIVAEGRDDLYVSDAFHKAFLEVNEEGSEAAASTALEIAGRSLNPNRVTFKANRPFLVFIREVPLNTIIFMGRVANPCVK
As to B2, in the assay with human factor Xa, the “IC50 fXa/UFH (HCA #5)” value came out at 30 nM; the “IC50 fXa/UFH (HCA #6)” value turned out to be 40 nM; the “rsd Xa, no add (CA #51, stg 1 conc 200)” value was -1%; the “rsd Xa, no add (CA #52, stg 1 conc 200)” value turned out to be 2%. Also, in assay [1], the “rsd IIa, catG (CA #51, stg 1 conc 200)” value was 1%; the “rsd IIa, catG (CA #52, stg 1 conc 200)” value was 5%; the “rsd Xa, catG (CA #51, stg 1 conc 200)” value is -2%; the “rsd Xa, catG (CA #52, stg 1 conc 200)” value came out at 1%. Also, in the assay with human thrombin, the “IC50 IIa/UFH (HCA #5)” value was found to be 150 nM; the “IC50 IIa/UFH (HCA #6)” value is 130 nM; the “rsd IIa, no add (CA #51, stg 1 conc 200)” value was found to be 2%; the “rsd IIa, no add (CA #52, stg 1 conc 200)” value was 5%. In addition, in assay [2], the “rsd IIa, HNE (CA #51, stg 1 conc 200)” value was 54%; the “rsd IIa, HNE (CA #52, stg 1 conc 200)” value came to 84%; the “rsd Xa, HNE (CA #51, stg 1 conc 200)” value was -3%; the “rsd Xa, HNE (CA #52, stg 1 conc 200)” value was found to be 92%.

B3: 13C.432 (other)
chain: SPVDICTAKPRDIPMNPMCIYRSPEKKATEDEGSEQKIPEATNRRVWELSKANSRFATTFYQHLADSKNDNDNIFLSPLSISTAFAMTKLGACNDTLQQLMEVFKFDTISEKTSDQIHFFFAKLNCRLYRKANKASKLVSANRLFGDKSLTFNETYQDISELVYGAKLQPLDFKENAEQSRAAINKWVSNKTEGRITDVIPSEAINELTVLVLVNTIYFKGLWKSKFSPENTRKELFYKADGESCSASMMYQEGKFRYRRVAEGTQVLELPFKGDDITMVLILPKPEKSLAKVEKELTPEVLQEWLDELEEMMLVVHMPRFRIEDGFSLKEQLQDMGLVDLFSPEKSKLPGIVAEGRDDLYVSDAFHKAFLEVNEEGSEAAASTELEIAGRSLNPNRVTFKANRPFLVFIREVPLNTIIFMGRVANPCVK
notes: Made in Drosophila S2 cells (DES) on the S137A background; N-terminus printed as SPVDI---
B3: in the assay with thrombin [3], the “rsd. IIa catG; CA expt #7; stg1 conc 200” value was 5 % of activity without ATIII, the “rsd. IIa catG; CA expt #8; stg1 conc 200” value is 8 % of activity without ATIII, the “rsd. IIa hne; CA expt #7; stg1 conc 200” value is 3 % of activity without ATIII and the “rsd. IIa hne; CA expt #8; stg1 conc 200” value was 16 % of activity without ATIII. Further, in the assay with thrombin [3], the “rsd. IIa no add; CA expt #7; stg1 conc 200” value was 5 % of activity without ATIII and the “rsd. IIa no add; CA expt #8; stg1 conc 200” value was 5 % of activity without ATIII. Further, in the assay with factor Xa [4], the “rsd. Xa catG; CA expt #7; stg1 conc 200” value was 3 % of activity without ATIII, the “rsd. Xa catG; CA expt #8; stg1 conc 200” value was 1 % of activity without ATIII, the “rsd. Xa hne; CA expt #7; stg1 conc 200” value was 2 % of activity without ATIII and the “rsd. Xa hne; CA expt #8; stg1 conc 200” value was 1 % of activity without ATIII. In addition, in the assay with factor Xa [4], the “rsd. Xa no add; CA expt #7; stg1 conc 200” value is 4 % of activity without ATIII and the “rsd. Xa no add; CA expt #8; stg1 conc 200” value was 1 % of activity without ATIII. In addition, the IC50 in the assay with factor Xa [5] is 45 nM. Also, the half-inhibitory concentration (IC50) with thrombin [6] was 460 nM.

B4: 13C.433 (other)
chain: SPVDICTAKPRDIPMNPMCIYRSPEKKATEDEGSEQKIPEATNRRVWELSKANSRFATTFYQHLADSKNDNDNIFLSPLSISTAFAMTKLGACNDTLQQLMEVFKFDTISEKTSDQIHFFFAKLNCRLYRKANKASKLVSANRLFGDKSLTFNETYQDISELVYGAKLQPLDFKENAEQSRAAINKWVSNKTEGRITDVIPSEAINELTVLVLVNTIYFKGLWKSKFSPENTRKELFYKADGESCSASMMYQEGKFRYRRVAEGTQVLELPFKGDDITMVLILPKPEKSLAKVEKELTPEVLQEWLDELEEMMLVVHMPRFRIEDGFSLKEQLQDMGLVDLFSPEKSKLPGIVAEGRDDLYVSDAFHKAFLEVNEEGSEAAASTELELAGRSLNPNRVTFKANRPFLVFIREVPLNTIIFMGRVANPCVK
notes: as for B3
Consider B4, for which, in the assay with thrombin [3], the “rsd. IIa catG; CA expt #7; stg1 conc 200” value was 5 % of activity without ATIII, the “rsd. IIa catG; CA expt #8; stg1 conc 200” value is 18 % of activity without ATIII, the “rsd. IIa hne; CA expt #7; stg1 conc 200” value is 4 % of activity without ATIII and the “rsd. IIa hne; CA expt #8; stg1 conc 200” value was 20 % of activity without ATIII. Besides, in the assay with thrombin [3], the “rsd. IIa no add; CA expt #7; stg1 conc 200” value was 5 % of activity without ATIII and the “rsd. IIa no add; CA expt #8; stg1 conc 200” value was 13 % of activity without ATIII. In the assay with factor Xa [4], the “rsd. Xa catG; CA expt #7; stg1 conc 200” value was 2 % of activity without ATIII, the “rsd. Xa catG; CA expt #8; stg1 conc 200” value is 1 % of activity without ATIII, the “rsd. Xa hne; CA expt #7; stg1 conc 200” value was 3 % of activity without ATIII and the “rsd. Xa hne; CA expt #8; stg1 conc 200” value was 1 % of activity without ATIII. In addition, in the assay with factor Xa [4], the “rsd. Xa no add; CA expt #7; stg1 conc 200” value is 4 % of activity without ATIII and the “rsd. Xa no add; CA expt #8; stg1 conc 200” value is 1 % of activity without ATIII. The IC50 with factor Xa [5] was 30 nM. In the assay with thrombin [6], the concentration for half-maximal inhibition (IC50) was found to be 600 nM.

B5: 13C.431 (other)
chain: SPVDICTAKPRDIPMNPMCIYRSPEKKATEDEGSEQKIPEATNRRVWELSKANSRFATTFYQHLADSKNDNDNIFLSPLSISTAFAMTKLGACNDTLQQLMEVFKFDTISEKTSDQIHFFFAKLNCRLYRKANKASKLVSANRLFGDKSLTFNETYQDISELVYGAKLQPLDFKENAEQSRAAINKWVSNKTEGRITDVIPSEAINELTVLVLVNTIYFKGLWKSKFSPENTRKELFYKADGESCSASMMYQEGKFRYRRVAEGTQVLELPFKGDDITMVLILPKPEKSLAKVEKELTPEVLQEWLDELEEMMLVVHMPRFRIEDGFSLKEQLQDMGLVDLFSPEKSKLPGIVAEGRDDLYVSDAFHKAFLEVNEEGSEAAASTELEAAGRSLNPNRVTFKANRPFLVFIREVPLNTIIFMGRVANPCVK
notes: Made in Drosophila S2 cells (DES) on the S137A background; N-terminus printed as SPVDI---; primer codon CTC gives L
As to B5, in the assay with thrombin [3], the “rsd. IIa catG; CA expt #7; stg1 conc 200” value is 5 % of activity without ATIII, the “rsd. IIa catG; CA expt #8; stg1 conc 200” value is 19 % of activity without ATIII, the “rsd. IIa hne; CA expt #7; stg1 conc 200” value is 4 % of activity without ATIII and the “rsd. IIa hne; CA expt #8; stg1 conc 200” value is 25 % of activity without ATIII. In the assay with thrombin [3], the “rsd. IIa no add; CA expt #7; stg1 conc 200” value is 5 % of activity without ATIII and the “rsd. IIa no add; CA expt #8; stg1 conc 200” value is 14 % of activity without ATIII. Besides, in the assay with factor Xa [4], the “rsd. Xa catG; CA expt #7; stg1 conc 200” value was 3 % of activity without ATIII, the “rsd. Xa catG; CA expt #8; stg1 conc 200” value is 1 % of activity without ATIII, the “rsd. Xa hne; CA expt #7; stg1 conc 200” value is 3 % of activity without ATIII and the “rsd. Xa hne; CA expt #8; stg1 conc 200” value was 2 % of activity without ATIII. Moreover, in the assay with factor Xa [4], the “rsd. Xa no add; CA expt #7; stg1 conc 200” value was 3 % of activity without ATIII and the “rsd. Xa no add; CA expt #8; stg1 conc 200” value was 2 % of activity without ATIII. Moreover, in the assay with factor Xa [5], the IC50 was 45 nM. Also, the 50% inhibitory concentration (IC50) in the assay with thrombin [6] amounted to 550 nM.

Source of the values: patent US20060259987A1 (UNIVERSITY OF UTAH RESEARCH FOUNDATION, published 2006).
